Article PMC8617172, “Architecture of the outer-membrane core complex from a conjugative type IV secretion system” (Nature Communications, 2021)

Columns and labels:
Experiment in all cases: cryo-EM structure; OMCC of TraB-strep, TraK and TraV co-expressed in E. coli, purified from membranes in 50 mM Tris-HCl pH 7.5, 300 mM NaCl, 0.23% w/v LDAO; 0.1 mg/ml on Lacey grids with ultrathin carbon; single-particle maps with C17 (inner ring, 3.3 Å), C13 (outer ring, 3.4 Å) and C1 (5.7 Å) symmetry
[1] = biological target: TraB (pED208 F-T4SS outer-membrane core complex protein, VirB10 homologue), strep-tagged (E. coli (plasmid pED208))
[2] = biological target: TraV (pED208 F-T4SS outer-membrane core complex lipoprotein, VirB7 homologue) (E. coli (plasmid pED208)) (UniProt P41069)
[3] = biological target: the molecule itself

Question: How did the stoichiometry N [1] turn out when “TraB (pED208 F-T4SS outer-membrane core complex protein, VirB10 homologue), strep-tagged (natural protein)” was run?
Answer: 17 chains

Question: For “TraK (pED208 F-T4SS outer-membrane core complex protein, VirB9 homologue) (natural protein)”, which stoichiometry N (TraK per TraB) [1] is on record?
Answer: 1.53

Question: For “TraV (pED208 F-T4SS outer-membrane core complex lipoprotein, VirB7 homologue) (from UniProt P41069 19-171) (natural protein)”, which stoichiometry N (TraV per TraB) [1] is on record?
Answer: 1.53

Question: And the stoichiometry N [2]?
Answer: 26 chains

B1: TraK (pED208 F-T4SS outer-membrane core complex protein, VirB9 homologue) (natural protein)
chain: AQSPATISLPQGGQFRLSISNTDPNMIFIPGDKVTAITAPGGMLADKRLTTAGGVLFTSVATRTFTIFVETALGQTFSVVATPVKGEGRVYRLMSAEPPSRPETRKWETAQAYEKLLISLNRAVLTGDIPDGYGEVKPLSDGIRLPGGFSVTPLKAWAGDQLRADRYELRNANTWGVALREQDFWKPGVRAVMFDNNAQTLMGGGRMTVTVIRGNG
notes: TraK1 and TraK2 are two conformations of the same chain; 26 copies in the whole OMCC; also called TraK (VirB9); TraK1
Question: With B1 as the molecule, how does the “stoichiometry N” value [3] read?
Answer: 26 chains
